From US20250093368A1 (BEIJING INSTITUTE OF HEART LUNG AND BLOOD VESSEL DISEASES, published 2025)

B4: Flag tag - S100A8 (expression product from plasmid 1; also the S100A8 chain co-expressed from plasmid 5) (other)
chain: DYKDDDDKLTELEKALNSIIDVYHKYSLIKGNFHAVYRDDLKKLLETECPQYIRKKGADVWFKELDINTDGAVNFQEFLILVIKMGVAAHKKSHEESHKE

Tests used:
[1] = molecular target: T1, S100A8 protein in patient sera (human, UniProt P05109 1-93); assay: Dot Blot, B cell supernatant on patient sera
T1 construct: Native serum protein; also called S100A8 signal in patient serum
T1 sequence (looked up): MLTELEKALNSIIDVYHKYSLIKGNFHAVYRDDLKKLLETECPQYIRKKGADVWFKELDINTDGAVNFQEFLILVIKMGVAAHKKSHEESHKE

[2] = molecular target: T2, commercial S100A8/S100A9 Heterodimer (R&D) heterodimer protein (UniProt P05109 1-93; P06702 2-114, limits assumed); assay: ELISA, LEM supernatant, heterodimer coated at 1 µg/mL
T2 construct: Bought, purity >95%; also called S100A8/S100A9 heterodimer protein standard; commercial S100A8/S100A9 protein
T2 sequence (looked up) 1: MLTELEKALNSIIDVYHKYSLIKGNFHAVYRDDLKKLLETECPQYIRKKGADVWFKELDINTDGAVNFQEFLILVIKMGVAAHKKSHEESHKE
T2 sequence (looked up) 2: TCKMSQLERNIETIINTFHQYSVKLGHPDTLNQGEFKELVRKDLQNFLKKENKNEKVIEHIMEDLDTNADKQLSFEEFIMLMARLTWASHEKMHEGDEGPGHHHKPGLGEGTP
Text: The ELISA reaction conditions were as follows: [0196]

[3] = molecular target: T3, S100A8 recombinant protein (pET-28a-S100A8 (1-93 aa) expressed protein) (human, UniProt P05109 1-93); assay: ELISA, B cell supernatant on expressed S100A8 antigen; positive = OD greater than 0.7
T3 construct: Immunogen and ELISA screening antigen, expressed from pET-28a; also called S100A8 antigen; expressed S100A8 antigen
T3 sequence: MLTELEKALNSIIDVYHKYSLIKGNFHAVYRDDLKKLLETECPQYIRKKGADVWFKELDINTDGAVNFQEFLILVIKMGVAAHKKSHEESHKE

[4] = molecular target: T4, commercial S100A8 protein (ab167749, Recombinant human MRP8 protein) (human, UniProt P05109 1-93); assay: ELISA, B cell supernatant on commercial S100A8 protein ab167749; positive = OD greater than 0.7
T4 construct: Bought; also called commercial S100A8 antigen
T4 sequence (looked up): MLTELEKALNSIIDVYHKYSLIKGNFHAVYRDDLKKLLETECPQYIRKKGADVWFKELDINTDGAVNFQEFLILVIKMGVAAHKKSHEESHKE

[5] = molecular target: T5, S100A8/S100A9-1 recombinant protein (expression product from plasmid 5) (human, UniProt P05109 2-93; P06702 1-114); assay: sandwich ELISA, 5H10 coated at 0.5 µg/mL, 7C4-HRP detecting
T5 construct: also called S100A8/S100A9-1 heterodimer; S100A8/S100A9-1 (S100A9 mutant) heterodimer; not shown: T7-tag
T5 chain 1: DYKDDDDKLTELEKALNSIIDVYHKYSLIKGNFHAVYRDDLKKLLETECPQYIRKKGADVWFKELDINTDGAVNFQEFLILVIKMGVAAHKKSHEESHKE
T5 chain 2: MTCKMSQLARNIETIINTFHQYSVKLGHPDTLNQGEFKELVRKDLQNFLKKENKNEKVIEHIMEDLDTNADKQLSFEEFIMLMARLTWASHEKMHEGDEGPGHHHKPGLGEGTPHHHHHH
Protocol: (1) Experimental steps: [0270] standard: commercial R&D S100A8/S100A9 heterodimer protein, 2-fold gradient dilution from 40 ng/mL, with a total of 8 concentrations, lower limit of 0.625 ng, and boundary value of 40-0.625; [0271] reaction system: 96-well plate reaction system, laboratory buffer; [0272] coating antibody concentration: 5H10 (anti-S100A8 antibody), 0.5 μg/mL; [0273] detecting antibody concentration: 7C4-HRP (directly labeled), antibody dilution ratio of 1:20000 or 1:10000; [0274] TMB development: dilution ratio being 1:2, and color development time being 15 min.

[6] = molecular target: the molecule itself; assay: SDS-PAGE of Flag-purified protein, homodimer band at 30 KDa
Text: (§1) (8) SDS-PAGE gel electrophoresis: the supernatant obtained after lysis and the purified protein were mixed with 6×Loading Buffer according to a volume ratio of 5:1 for sample preparation; and the prepared sample was subjected to SDS-PAGE gel electrophoresis together with bovine serum albumin (BSA, purchased from BioFroxx, Cat. No. 4240GR025) and Marker, wherein plasmid 1 and mutant plasmid 1 were the final samples purified by Flag-Tag, plasmid 2 and mutant plasmid 2 were the final samples purified by His-Tag, and plasmid 3 and plasmid 4 were the final samples purified by His-Tag and Flag-Tag. […] In panel C, the “Supernatant” refers to the supernatant obtained after centrifugation during first lysis, and the “Supernatant 2” refers to the supernatant obtained by performing second lysis treatment on the precipitate obtained after first lysis and centrifugation and then performing centrifugation.

[7] = molecular target: the molecule itself; assay: SDS-PAGE of His-purified protein, homodimer band at 34 KDa
Text: as §1

[8] = molecular target: the molecule itself; assay: SDS-PAGE of protein purified by His-Tag and Flag-Tag
Text: as §1
Except for the synthesized gene of interest (gene of interest S100A8+S100A9-1 in plasmid 5), the construction and expression and purification method for plasmid 5 was the same as that for plasmids 3 and 4, which was not described in detail herein.

[9] = molecular target: B4; assay: co-expression, purification by His-Tag then Flag-Tag, SDS-PAGE
[10] = molecular target: the molecule itself; assay: SDS-PAGE of His-purified protein
Text: as §1

[11] = molecular target: T6, S100A9 protein in patient sera (human, UniProt P06702 2-114, limits assumed); assay: Dot Blot, B cell supernatant on patient sera
T6 construct: Native serum protein; also called S100A9 signal in patient serum
T6 sequence (looked up): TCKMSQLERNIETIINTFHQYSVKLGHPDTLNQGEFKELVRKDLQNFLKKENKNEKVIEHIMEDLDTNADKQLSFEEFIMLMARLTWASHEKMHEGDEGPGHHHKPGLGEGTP

[12] = molecular target: T7, S100A9 recombinant protein (pET-28a-S100A9 (1-114 aa) expressed protein) (human, UniProt P06702 1-114); assay: ELISA, LEM supernatant, antigen coated at 1 µg/mL
T7 construct: Immunogen and ELISA screening antigen, expressed from pET-28a; also called S100A9 antigen; expressed S100A9 antigen
T7 sequence: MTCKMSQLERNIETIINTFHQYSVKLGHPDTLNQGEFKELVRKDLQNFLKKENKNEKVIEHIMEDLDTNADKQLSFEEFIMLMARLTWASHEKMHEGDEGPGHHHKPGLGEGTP
Text: (§2) The ELISA reaction conditions were as follows: [0207]

[13] = molecular target: T8, commercial S100A9 protein (ab95909, Recombinant Human S100A9 protein) (human, UniProt P06702 1-114); assay: ELISA, LEM supernatant, antigen coated at 1 µg/mL
T8 construct: Bought; also called commercial A9 protein
T8 sequence (looked up): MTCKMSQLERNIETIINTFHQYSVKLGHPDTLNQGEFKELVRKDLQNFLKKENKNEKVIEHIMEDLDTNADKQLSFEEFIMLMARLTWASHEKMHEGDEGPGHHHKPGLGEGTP
Text: as §2

Measured: binding result

B1: 2C2 (antibody, V domains shown)
VH: QSVEESGGRLVTPGGSLTLTCTVSGFSLSSYFMIWVRQAPGKGLEYIGIHSDTGSTDYASWAKGRFTISKTSTTVDLKMTSLTASDTATYFCARDGGNDAYYYFNIWGPGTLVTVSS
VL: AYDMTQTPASVEVAVGGTVTINCQASQSISTALAWYQQKPGQPPKPLIYEASKLASGVPSRFKGSGSGTEFILTISDLECADAATYYCQQGASARNIASNVFGGGTEVVVKG
notes: Rabbit monoclonal IgG against S100A8 (rabbit E15229); Biotin-labeled when used as detecting antibody
binds: [1] | [2] | [3] | [4]

B2: 3D8 (antibody, V domains shown)
VH: QSVEESGGRLVTPGTPLTLTCTVSGIDLSTNPMGWVRQAPGKGLEWIGIIFADTGEIYYATWAKGRFTISETSSTTVDLKITSPTAEDTATYFCVRGSPSSANIWGPGTLVTVSS
VL: AAVLTQTPSPVSAAVGGTVTISCQSSQSVYNNNWLGWYQQKPGQPPKLLIYRASTLASGVPSRFKGSGSGTQFTFTISDLECDDAATYYCAGTYRRNSDNGFGGGTEVVVKG
notes: as for B1
binds: [1] | [2] | [3] | [4]

B3: 5H10 (antibody, V domains shown)
VH: QSVEESGGRLVTPGTPLTLTCTVSGIDLSTNPMGWVRQAPGKGLEWIGIIFADTGEIYYATWARGRFTISETSSTTVDLKITSPTAEDTATYFCVRGSPSSANIWGPGTLVTVSS
VL: AAVLTQTPSPVSAAVGGTVTISCQSSQSVYNNNWLGWYQQKPGQPPKLLIYRASTLASGVSSRFKGSGSGTQFTLTISGLECDDAATYYCAGTYRRNSDNGFGGGTEVVVKG
notes: Rabbit monoclonal IgG against S100A8 (rabbit E15229); Tested as B cell supernatant, LEM supernatant and purified recombinant antibody; biotin-labeled when used as detecting antibody; also called anti-S100A8 monoclonal antibody 5H10
binds: [1] | [2] | [5] | [3] | [4]

B4
binds: [6]

B5: S100A9 - 6 x His tag (expression product from plasmid 2) (other)
chain: MTCKMSQLERNIETIINTFHQYSVKLGHPDTLNQGEFKELVRKDLQNFLKKENKNEKVIEHIMEDLDTNADKQLSFEEFIMLMARLTWASHEKMHEGDEGPGHHHKPGLGEGTPHHHHHH
notes: pET-28a, BamHI/HindIII
binds: [7]

B6: T7-tag - S100A9-1 - 6 x His tag (S100A9-1 chain co-expressed from plasmid 4 and plasmid 5) (other)
chain: MTCKMSQLARNIETIINTFHQYSVKLGHPDTLNQGEFKELVRKDLQNFLKKENKNEKVIEHIMEDLDTNADKQLSFEEFIMLMARLTWASHEKMHEGDEGPGHHHKPGLGEGTPHHHHHH
notes: Single chain of the co-expression constructs, written as a molecule of its own for the dimer formation results; also called mutant S100A9; not shown: T7-tag
binds: [8] | [9]

B7: S100A9-1 (E9A) - 6 x His tag (expression product from mutant plasmid 2) (other)
chain: MTCKMSQLARNIETIINTFHQYSVKLGHPDTLNQGEFKELVRKDLQNFLKKENKNEKVIEHIMEDLDTNADKQLSFEEFIMLMARLTWASHEKMHEGDEGPGHHHKPGLGEGTPHHHHHH
notes: pET-28a, BamHI/HindIII; also called mutant S100A9
binds: [10]

B8: 7C4 (antibody, V domains shown)
VH: QSVEESGGRLVTPGTPLTLTCTVSGIDLSSGWMNWVRQAPGGGLEWIGTINSGGSPYYARWAKGRFTLSTTSTTVDLKITSPTTEDTATYFCGSRDFWGPGTLVTVSS
VL: AQVLTQTASPVSAAVGGTVTINCQASQSVYNNNYLAWYQQKPGQPPKRLIYAASNLASGVSSRFKGSGSGTQFTLTISDLQCDDAATYYCSGGYDCDSADCSVFGGGTEVVVKG
notes: Rabbit monoclonal IgG against S100A9 (rabbit E16675); also called 7C4-HRP; 7C4 (biotin-labeled)
binds: [11] | [12] | [13] | [2] | [5]

B9: 8A11 (antibody, V domains shown)
VH: QSVEESGGRLVTPGTPLTLTCTVSGIDLSSGWMNWVRQAPGKGLEWIGVINSYGRTYYARWAKGRFTISITSTTVDLKITSPTTEDTATYFCGSRDFWGPGTLVTVSS
VL: AQVLTQTASPVSAAVGSTVTINCQASQSVYKNNYLAWYQQKPGQPPKRLIYSASTLASGVSSRFKGSGSGTQFTLTISDVQCDDAATYYCGGGYDCDSADCSVFGGGTEVVVKG
notes: Rabbit monoclonal IgG against S100A9 (rabbit E16675); Biotin-labeled when used as detecting antibody; also called 8A11 (biotin-labeled)
binds: [11] | [12] | [13] | [2]
